The text below walks through data of patent US20040091475A1 (Chugai, published 2004).

Numbering of substitutions follows the chain as printed.

In assay [1] the target is human TPO receptor (MPL) expressed on Ba/F3 cells (human) (UniProt P40238). The experiment in a line: cell-based or functional assay.
In assay [2] the target is T1, human TPO receptor (MPL) expressed on Ba/F3 cells (human, UniProt P40238 26-635).
T1 sequence (looked up): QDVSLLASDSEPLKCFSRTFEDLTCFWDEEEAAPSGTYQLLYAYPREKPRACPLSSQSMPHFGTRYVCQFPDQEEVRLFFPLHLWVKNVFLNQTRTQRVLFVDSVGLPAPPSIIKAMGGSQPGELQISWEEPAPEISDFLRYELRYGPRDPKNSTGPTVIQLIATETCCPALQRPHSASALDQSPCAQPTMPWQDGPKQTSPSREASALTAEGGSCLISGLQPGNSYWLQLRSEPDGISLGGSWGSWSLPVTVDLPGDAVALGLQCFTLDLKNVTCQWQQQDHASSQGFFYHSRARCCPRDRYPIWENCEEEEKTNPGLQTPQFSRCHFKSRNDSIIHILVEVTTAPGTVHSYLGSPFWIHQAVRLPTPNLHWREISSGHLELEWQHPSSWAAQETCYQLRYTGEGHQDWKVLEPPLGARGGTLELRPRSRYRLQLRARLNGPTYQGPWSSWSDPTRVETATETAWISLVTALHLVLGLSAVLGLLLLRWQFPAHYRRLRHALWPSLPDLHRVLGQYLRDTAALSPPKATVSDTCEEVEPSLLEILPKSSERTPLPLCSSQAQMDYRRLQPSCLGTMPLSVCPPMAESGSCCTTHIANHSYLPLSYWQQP
The experiment in a line: cell-based or functional assay.

The target of assay [3] is T2, human Integrin Associated Protein (IAP) expressed on mouse leukemia cell line L1210 (human, UniProt Q08722 19-323).
T2 construct: whole, on cells; also called human IAP; hIAP/L1210
T2 sequence (Q08722 19-323): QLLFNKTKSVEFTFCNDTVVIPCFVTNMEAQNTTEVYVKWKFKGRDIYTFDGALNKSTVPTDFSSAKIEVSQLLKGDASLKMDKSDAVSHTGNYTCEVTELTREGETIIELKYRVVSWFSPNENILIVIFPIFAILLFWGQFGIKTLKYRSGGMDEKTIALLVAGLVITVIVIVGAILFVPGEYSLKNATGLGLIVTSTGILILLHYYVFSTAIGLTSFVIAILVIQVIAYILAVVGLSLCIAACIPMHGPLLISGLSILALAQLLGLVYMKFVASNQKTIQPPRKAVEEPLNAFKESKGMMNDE
Briefly: flow cytometry on L1210 cells expressing human IAP; COS7 culture supernatant; mouse anti-FLAG antibody, then FITC-labeled anti-mouse IgG antibody. The protocol: Flow cytometry was performed using the culture supernatants of COS7 cells prepared in Example 6.3 (1) to measure the binding of the MABL2-scFVs and sc(Fv)₂ to human Integrin Associated Protein (IAP) antigen. The culture supernatants to be tested or a culture supernatant of COS7 cells as a control was added to 2×10⁵ cells of the mouse leukemia cell line L1210 expressing human IAP. After incubating on ice and washing, 10 μg/mL of the mouse anti-FLAG antibody (SIGMA) was added and then the cells were incubated and washed. Then, the FITC labeled anti-mouse IgG antibody (BECTON DICKINSON) was added thereto and the cells were incubated and washed again. The fluorescence intensity was measured using the FACScan apparatus (BECTON DICKINSON).

Assay [4] addresses T2, human Integrin Associated Protein (IAP) …. Described as above. As for the experimental part:
Flow cytometry was performed using the aforementioned COS7 cells culture supernatant to measure the binding to the antigen. The culture supernatant of the COS7 cells expressing the reconstructed single chain Fv of antibody MABL-2 or the culture supernatant of COS7 cells transformed with pCHO1 vector as a control was added to 2×10⁵ cells of the mouse leukemia cell line L1210 expressing human Integrin Associated Protein (IAP) or the cell line L1210 transformed with pCOS1 as a control. After incubating on ice and washing, the mouse anti-FLAG antibody (SIGMA) was added. Then the cells were incubated and washed. Then, the FITC labeled anti-mouse IgG antibody (BECTON DICKINSON) was added thereto and the cells were incubated and washed again. Subsequently, the fluorescence intensity was measured using the FACScan apparatus (BECTON DICKINSON).
This is another data set of the same source.

For assay [5], the target named is T3, secretion-type human IAP antigen (human, UniProt Q08722 19-142, limits assumed).
T3 construct: captured on plates coated with anti-FLAG antibody
T3 sequence (Q08722 other isoform, or with tags, fused parts or gaps limits assumed): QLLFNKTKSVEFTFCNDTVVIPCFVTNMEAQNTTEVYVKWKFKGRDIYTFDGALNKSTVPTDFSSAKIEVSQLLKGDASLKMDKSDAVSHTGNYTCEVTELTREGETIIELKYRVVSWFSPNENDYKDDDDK
Briefly: competitive ELISA: secretion-type human IAP captured on anti-FLAG antibody; competitor biotinized MABL-2 antibody at 100 ng/ml; serial dilutions of COS7 culture supernatant (x axis: dilution ratio of CM, no concentration unit). The protocol: The binding activity of the reconstructed single chain Fv of antibody MABL-2 was measured based on the inhibiting activity against the binding of mouse monoclonal antibodies to the antigen.
The anti-FLAG antibody adjusted to 1 μg/ml was added to each well on 96-well plate and incubated at 37° C. for 2 hours. After washing, blocking was performed with 1% BSA-PBS. After incubating and washing at a room temperature, the culture supernatant of COS7 cells into which the secretion-type human IAP antigen gene (SEQ ID No. 26) had been introduced was diluted with PBS into twofold volume and added to each well. After incubating and washing at a room temperature, a mixture of 50 μl of the biotinized MABL-2 antibody adjusted to 100 ng/ml and 50 μl of sequentially diluted supernatant of the COS7 cells expressing the reconstructed single chain Fv of antibody MABL-2 were added into each well. After incubating and washing at a room temperature, the alkaline phosphatase-conjugated streptoavidin (Zymed) was added into each well. After incubating and washing at a room temperature, the substrate solution (SIGMA) was added and absorbance of the reaction mixture in each well was measured at 405 nm.

Assay [6] concerns the target T2, human Integrin Associated Protein (IAP) …. Briefly: flow cytometry on L1210 cells expressing human IAP; COS7 culture supernatant; FITC-labeled anti-human IgG antibody.
Assay [7] shares this target. Briefly: flow cytometry, 10 µg/ml antibody on L1210 cells expressing human IAP (panel B), pCOS1/L1210 cells as control (panel A); FITC-labeled anti-mouse IgG antibody. As for the experimental part: Flow cytometry was performed using the purified dimer of MABL2-scFv <HL-5> and the purified sc(Fv)₂ in order to evaluate the binding to human Integrin Associated Protein (IAP) antigen. 10 μg/ml of the purified dimer of MABL2-scFv <HL-5>, the purified sc(Fv)₂, the antibody MABL-2 as a positive control or a mouse IgG (Zymed) as a negative control was added to 2×10⁵ cells of the mouse leukemia cell line L1210 expressing human IAP (hIAP/L1210) or the cell line L1210 transformed with pCOS1 (pCOS1/L1210) as a control. After incubating on ice and washing, 10 μg/mL of the mouse anti-FLAG antibody (SIGMA) was added and then the cells were incubated and washed. FITC labeled anti-mouse IgG antibody (BECTON DICKINSON) was added thereto and the cells were incubated and washed again. Then the fluorescence intensity was measured using the FACScan apparatus (BECTON DICKINSON).
(In general: A flow cytometer gives signals particle by particle.)

Assay [8] shares this target. Briefly: flow cytometry on L1210 cells expressing human IAP; COS7 culture supernatant; FITC-labeled anti-human IgG antibody. The source holds these as a separate data set.

In turn, “human TPO (R&D Systems) (from UniProt P40225 22-353) (ligand)” had a proliferation of Ba/F3 cells expressing human TPO receptor (BaF/mpl), WST-8; ED50 in assay [1] of 0.027 nM.

B1: antibody 12B5 (IgG) (antibody, V domains shown)
VH: QVQLVQSGGGLVRPGGSLSLSCAVSGITLRTYGMHWVRQAPGKGLEWVAGISFDGRSEYYADSVQGRFTISRDSSKNTLYLQMNSLRAEDTAVYYCARGAHYGFDIWGQGTMVTVSS
VL: DIQMTQSPSTLSASIGDRVTITCRASEGIYHWLAWYQQKPGKAPKLLIYKASSLASGAPSRFSGSGSGTDFTLTISSLQPDDFATYYCQQYSNYPLTFGGGTKLEIK
Turning to B1, in assay [2], the “TPO-like agonist activity: proliferation of Ba/F3 cells expressing human TPO receptor (BaF/mpl), WST-8; ED50” value came out at 29 nM.

B2: 12B5Fab fragment (Fab, V domains shown)
VH: B1 VH
VL: B1 VL
Regarding B2, in assay [2], the “TPO-like agonist activity: proliferation of Ba/F3 cells expressing human TPO receptor (BaF/mpl), WST-8; ED50” value worked out at 34700 nM.

B3: antibody MABL-2 sc(Fv)2 (scFv)
chain: QVQLQQSGPELVKPGASVKMSCKASGYTFANHVIHWVKQKPGQGLEWIGYIYPYNDGTKYNEKFKDKATLTSDKSSTTAYMDLSSLASEDSAVYYCARGGYYTYDDWGQGTTLTVSSGGGGSGGGGSGGGGSDVVMTQSPLSLPVSLGDQASISCRSSQSLVHSNGKTYLHWYLQKPGQSPKLLIYKVSNRFSGVPDRFSGSGSVTDFTLMISRVEAEDLGVYFCSQSTHVPYTFGGGTKLEIKGGGGSGGGGSGGGGSVDSQVQLQQSGPELVKPGASVKMSCKASGYTFANHVIHWVKQKPGQGLEWIGYIYPYNDGTKYNEKFKDKATLTSDKSSTTAYMDLSSLASEDSAVYYCARGGYYTYDDWGQGTTLTVSSGGGGSGGGGSGGGGSDVVMTQSPLSLPVSLGDQASISCRSSQSLVHSNGKTYLHWYLQKPGQSPKLLIYKVSNRFSGVPDRFSGSGSVTDFTLMISRVEAEDLGVYFCSQSTHVPYTFGGGTKLEIKDYKDDDDK
notes: Single chain polypeptide with two H chain V regions and two L chain V regions of MABL-2, FLAG at the C-terminus; eluted at the position of the monomer; also called pCHOM2(Fv)2
For B3, in assay [3], the binding result was “binds”.

B4: reconstructed single chain Fv of antibody MABL-2 (plasmid pCHOM2), culture supernatant of COS7 cells (scFv)
scFv: QVQLQQSGPELVKPGASVKMSCKASGYTFANHVIHWVKQKPGQGLEWIGYIYPYNDGTKYNEKFKDKATLTSDKSSTTAYMDLSSLASEDSAVYYCARGGYYTYDDWGQGTTLTVSSGGGGSGGGGSGGGGSDVVMTQSPLSLPVSLGDQASISCRSSQSLVHSNGKTYLHWYLQKPGQSPKLLIYKVSNRFSGVPDRFSGSGSVTDFTLMISRVEAEDLGVYFCSQSTHVPYTFGGGTKLEIKDYKDDDDK
notes: VH-(Gly4Ser)3-VL-FLAG; Unfractionated supernatant (monomer and dimer not separated); also called MABL2-scFv; MABL2-scFv/COS7
As to B4, the binding result in assay [4] and in assay [5] was “binds” each time.

B5: reconstructed 12B5 single chain Fv (sc12B5), culture supernatant of COS-7 cells (scFv)
scFv: QVQLVQSGGGLVRPGGSLSLSCAVSGITLRTYGMHWVRQAPGKGLEWVAGISFDGRSEYYADSVQGRFTISRDSSKNTLYLQMNSLRAEDTAVYYCARGAHYGFDIWGQGTMVTVSSGGGGSGGGGSGGGGSDIQMTQSPSTLSASIGDRVTITCRASEGIYHWLAWYQQKPGKAPKLLIYKASSLASGAPSRFSGSGSGTDFTLTISSLQPDDFATYYCQQYSNYPLTFGGGTKLEIKDYKDDDDK
Regarding B5, the “TPO-like agonist activity: proliferation of Ba/F3 cells expressing human TPO receptor (BaF/mpl), WST-8; ED50” value in assay [2] came out at 75 nM.

B6: sc12B5 monomer (scFv)
scFv: B5 scFv
With B6, in assay [2], the “TPO-like agonist activity: proliferation of Ba/F3 cells expressing human TPO receptor (BaF/mpl), WST-8; ED50” value was 4440 nM.

B7: sc12B5 dimer (scFv)
scFv: B5 scFv
With B7, in assay [2], the “TPO-like agonist activity: fold against monovalent sc12B5” value is approximately 400 fold and the “TPO-like agonist activity: proliferation of Ba/F3 cells expressing human TPO receptor (BaF/mpl), WST-8; ED50” value came out at 10.1 nM.

B8: chimera MABL-1 antibody (antibody, V domains shown)
VH: QVQLQQSGPDLVKPGASVKMSCKASGYTFVNHVMHWVKQKPGQGLEWIGYIYPYNDGTKYNEKFKGKATLTSEKSSSAAYMELSSLASEDSAVYYCARGGYYSYDDWGQGTTLTVSS
VL: DVVMTQTPLSLPVSLGDQASISCRSSQSLLHSKGNTYLQWYLQKPGQSPKLLIYKVSNRFSGVPDRFSGSGSGTDFTLKISRVEAEDLGVYFCSQSTHVPYTSGGGTKLEIK
notes: Mouse MABL-1 V regions cloned into HEF-gamma and HEF-kappa expression vectors (human constant regions); tested as COS7 culture supernatant
As to B8, the binding result in assay [6] is recorded as “binds”.

B9: mouse monoclonal antibody MABL-2 (antibody, V domains shown)
VH: B8 VH with D10E, V30A, M34I, G66D, E73D, S77T, A78T, E82D, S103T
VL: B8 VL with T7S, L30V, K33N, N35K, Q39H, G73V, K79M, S103F
notes: Whole mouse antibody from hybridoma MABL-2 (H chain amplified with the MHC-gamma2a primer, kappa L chain); also called MABL-2 (intact)
For B9, the binding result in assay [7] is on record as “binds”.

B10: chimera MABL-2 antibody (antibody, V domains shown)
VH: B8 VH with D10E, V30A, M34I, G66D, E73D, S77T, A78T, E82D, S103T
VL: B8 VL with T7S, L30V, K33N, N35K, Q39H, G73V, K79M, S103F
notes: Mouse MABL-2 V regions cloned into HEF-gamma and HEF-kappa expression vectors (human constant regions); tested as COS7 culture supernatant
Consider B10, for which the binding result in assay [8] is “binds”.
